Experimental data reported in patent publication US6498233, “Nucleic acid transfer system” (Winfried).

Molecular target: scFv(FRP5)-deltaETA-deltaGAL4 (synthetic construct (Saccharomyces …))
Test: EMSA; […] (printed ml); 50 mM Hepes pH 7.5, 50 mM KCl, 5 mM MgCl2, […], room temperature; […] (11.3)
Conditions: tags: N-terminal FLAG and His6, C-terminal KDEL signal; chain copies: 2 (stated; dimer per site, two dimers on tandem site); label: 5'-32P

B1: G4 oligonucleotide (two GAL4 motifs) (dsDNA)
DNA 1: AGCTTGGATCCGGAGGACAGTCCTCCGGAGACCGGAGGACAGTCCTCC
DNA 2: GATCGGAGGACTGTCCTCCGGTCTCCGGAGGACTGTCCTCCGGATCCA
- binding result: binds
